Assay results from the DeepSol protein solubility set.

Assay: soluble on expression in E. coli; label from the status in PepcDB or PDB records

Row | Sequence | soluble on expression in E. coli
1 | MKGQLAFDLPIRPALSREDFFISPANALALASLDGWRDWPRGKMVLVGPRGSGKTHLAHIWAAQAEARLIPAEALARADLPALAADGAVAVEDAERLGGDRAAEEALFHLHNLMLERAGALLITAAGPPRDWGLGLADLKSRMQAASVTRLEAPDDALLSAMLVKLFTDRQIAVPGMLVPWLVARMDRSCEAARALVAALDARSLAERRPISRQMAAELLGLTATDLEHHHHHH | not soluble
2 | MKGRDVVLGLLMQKELSGYDIKIVFEDVFTHFFDGSFGMIYPTLRQLENEGKIKKEVVMQEGKPNKKMYFITDEGREEFYQYMQTPVEKDVLRSDFLMRMYFGNYSDDVTIKKWIKDEIERKEAYIADLRLKYEKWRVGITFVEEISLDVGIASYSAQVETLKKKLEELEAKENNKTEE | soluble
3 | MKHILIIGATGQIGSELTMELRRRYGNTNVVAGYIQGAEPKGELKESGPSAVVDVTNGEMIESVVKEYHIDTIYNLAALLSVVAESKPKLAWKIGIDGLWNVLEVAREQGCAVFTPSSIGSFGASTPHTQTPQDTIQRPRTMYGVTKVTTELLSDYYFNKYGVDTRAVRFPGIISNVTPPGGGTTDYAVDIYYSAVRGEKFVCPIKEGTLMDMMYMPDALNAAIMLMEADPTKLIHRNAFNIASMSFDPETIFHAIKKHVPAFEMIYDVDPLKQRIADSWPDSLDDTCAREEWGWKPAYDLESMTVDMLEKLREKLKK | not soluble
4 | MKHQHQHQHQHQHQQPLNEEFRPEMLQGKKVIVTGASKGIGREMAYHLAKMGAHVVVTARSKETLQKVVSHCLELGAASAHYIAGTMEDMTFAEQFVAQAGKLMGGLDMLILNHITNTSLNLFHDDIHHVRKSMEVNFLSYVVLTVAALPMLKQSNGSIVVVSSLAGKVAYPMVAAYSASKFALDGFFSSIRKEYSVSRVNVSITLCVLGLIDTETAMKAVSGIVHMQAAPKEECALEIIKGGALRQEEVYYDSSLWTTLLIRNPSRKILEFLYSTSYNMDRFINK | soluble
5 | MKIAIIGAGNMGGSIARGLAKGSLIADSDIIVSNPSAGKLEKLKEEFPGISTTLSNTEAATGADVVILAVKPWFVESVMRELKLKSKQTLVSVAAGISFEELAHFVIAPEMPMFRLIPNTAISELESMTLIAARNTNDEQNLFMLRLFNEMGMAMLIPEDKIAATTALTSCGIAYVLKYIQAAMQAGIEMGIRPKDAMEMVAQSVKGAAALILNNDTHPSVEIDKVTTPGGITIKGINELEHNGFTSAVIKAMKASK | soluble
6 | MKIALIGITGRVGSRLADELLRRGHHVTGIARDPASVRPQPNLTARQGDAAVPEDLAPILAGHDAVISAARFVSLDAKPLLAAIRQAGVPRLLVVGGAGSLQVAPGVALIDTPEFPDAYKPEARAGVVFLDTLRREQEVEWTFLSPSALFEPGERTGEFRLGADLLLADDEGKSWISMEDYAIALVDELETPRHARRRFTVGYLEHHHHHH | not soluble
7 | MKIAVLGATGRAGSAIVAEARRRGHEVLAVVRDPQKAADRLGATVATLVKEPLVLTEADLDSVDAVVDALSVPWGSGRGYLHLDFATHLVSLLRNSDTLAVFILGSASLAMPGADHPMILDFPESAASQPWYDGALYQYYEYQFLQMNANVNWIGISPSEAFPSGPATSYVAGKDTLLVGEDGQSHITTGNMALAILDQLEHPTAIRDRIVVRDADLEHHHHHH | soluble
8 | MKIAVVGGGIVGLSTAFELSSRGHSVHVFDPNPASGASHFAGGMLAPAAEVQFQQDPLFPLMKRAGKLWPDMVRRVAQRTNLPTGYRTEGTLVVAADRADAEHLKQLRATQEAAGMDVRPITTRQARGLEPALGPRLSAAVHIPNDTQVAPRVFLTALLDALDDCGVGVIKEKITDLEPLYQQFD | not soluble
9 | MKIEIKVQIKDGKNSPNLKPGGYIVSASKSFSIDYSKAVAITRNPEIYKNIGIPYIWISKVEGENAISPTNLPKLLHTMISLSKKHPGVTFIIDSVEYLALENGFESTFKFLISAKDHLMLNNSSLVLIIEDKAFKPNELALLKKEFKEISLEHHHHHH | soluble
10 | MKIHTTEALMKAEISRRSLMKTSALGSLALASSAFTLPFSQMVRAAEAPVEEKAVWSSCTVNCGSRCLLRLHVKDDTVYWVESDTTGDDVYGNHQVRACLRGRSIRRRMNHPDRLKYPMKRVGKRGEGKFERISWDEALDTISDNLRRILKDYGNEAVHVLYGTGVDGGNITNSNVPYRLMNSCGGFLSRYGSYSTAQISAAMSYMFGANDGNSPDDIANTKLVVMFGNNPAETRMSGGGVTYYVEQARERSNARMIVIDPRYNDTAAGREDEWLPIRPGTDGALACAIAWVLITENMVDQPFLDKYCVGYDEKTLPANAPRNAHYKAYILGEGPDGIAKTPEWAAKITSIPAEKIIQLAREIGSAKPAYICQGWGPQRHSNGEQTSRAIAMLSVLTGNVGINGGNSGVREGSWDLGVEWFPMLENPVKTQISVFTWTDAIDHGTEMTATRDGVRGKEKLDVPIKFLWCYASNTLINQHGDINHTHEVLQDDSKCEMIVGIDHFMTASAKYCDILLPDLMPTEQEDLISHESAGNMGYVILAQPATSAKFERKPIYWMLSEVAKRLGPDVYQTFTEGRSQHEWIKYLHAKTKERNPEMPDYEEMKTTGIFKKKCPEEHYVAFRAFREDPQANPLKTPSGKIEIYSERLAKIADTWELKKDEIIHPLPAYTPGFDGWDDPLRKTYPLQLTGFHYKARTHSSYGNIDVLQQACPQEVWINPIDAQARGIRHGDTVRVFNNNGEMLIAAKVTPRILPGVTAIGQGAWLKADMFGDRVDHGGSINILTSHRPSPLAKGNPSHSNLVQIEKV | not soluble
11 | MKIIARNKKALFDYSIIERFEAGIVLKGSEVVALRAGRANLKDSFVRIIKNEIFLLNSHISLLHTTHSFYKHEERGARKLLMHRKQIDKLLGKVSIEGYTIVALDLYFNTKNKVKATLALAKGKNLHDKRETLKKKQADLEARAAMKNYK | not soluble
12 | MKIITCYKCVPDEQDIAINNADGTLDFSKADSKISQYDLNAIEAACQLKQQLGDAQVVAMSVGGKALTNAKGRKDVLSRGPDELIVVIDDQFEQALPQHTATALAAAAQKSGFDLLICGDGSSDLYAQQVGLLVGEALNIPAINGVSKILSLTDSTLTVERELEDEVETLSIPLPAVIAVSTDINTPQIPSMKAILGAAKKPVQVWSPADIGLNSVPAYSAQQVAAPKQRERQRVVIEGDGEEQIAAFVENLRKII | not soluble
13 | MKIKEMVTSEMPRERLLSHGAKSLSNTELLAILINTGRKGFSSIDISNELLKSASNLNELKKSSINDLIKVKGIGLQKAITLKAAFELGERMGRRAENNRIKITQPSDVADYMIPTMKDLTQEHFVILLLNSKNVVIKETCVFKGTLNSSIVHPREIFSIAVRENANAIIAVHNHPSGDVLTIV | not soluble
14 | MKILTQSLPNSSAAYLQGYLRENTDSSVTYPTVIIVPGGSYTHIPERQAEDLALAWVARGYQAFFLRYSFISEKTPLLPNPVIELAQSVAAIHAHATTWHVDLRRLAVAGFSVGGHITALFNDWWSEADFNQQAHTTPEQLKVQAVILGYPVISPDLGFPTDAATLATWSTTPKKIAADQHVTAANAPTFIWVTANDPLVPVQNALAYAQASLTHGVDTELHVFHNGPHGLALANSVTAWKPGTDLPHVAHWLDLATEWLQDLKLEHHHHHH | soluble
15 | MKIMIIGATGMAGQALVTTALNRGHQVVAVARSAEKLATLPSNPNLTSIVRDAFNLTTTDLSAVDAVVDAFATAPDHAYLHVDLATHLISQLRETTTPRVAFILGAGSLTTGDDAHLFVHDLEQDPHAASFISVPQNQLKELTFLRDVDNVNWFGVSPAADFHPGEAQPALLGTDTLLFNDQQQSGTSAGTMAVAILDELENPLEHHHHHH | not soluble
16 | MKIPASSPQDTTNNNNNTNSTDSNHLSMDEHVMRSMDWDSIMKELELDDDSAPNSLKTGFTTTTTDSTILPLYAVDSNLPGFPDQIQPSDFESSSDVYPGQNQTTGYGFNSLDSVDNGGFDFIEDLIRVVDCVESDELQLAQVVLSRLNQRLRSPAGRPLQRAAFYFKEALGSFLTGSNRNPIRLSSWSEIVQRIRAIKEYSGISPIPLFSHFTANQAILDSLSSQSSSPFVHVVDFEIGFGGQYASLMREITEKSVSGGFLRVTAVVAEECAVETRLVKENLTQFAAEMKIRFQIEFVLMKTFEMLSFKAIRFVEGERTVVLISPAIFRRLSGITDFVNNLRRVSPKVVVFVDSEGWTEIAGSGSFRREFVSALEFYTMVLESLDAAAPPGDLVKKIVEAFVLRPKISAAVETAADRRHTGEMTWREAFCAAGMRPIQQSQFADFQAECLLEKAQVRGFHVAKRQGELVLCWHGRALVATSAWRF | soluble
